# Assay results reported in US20240117018A1.
# Columns and labels:
# Test in all cases: cell-based or functional assay
# [1] = target: HIV-1 Env pseudovirus A07412M1.vrc12 (HIV-1)
# [2] = target: HIV-1 Env pseudovirus C4118.c09 (HIV-1)
# [3] = target: HIV-1 Env pseudovirus C3347.c11 (HIV-1)
# [4] = target: HIV-1 Env pseudovirus BJOX028000.10.3 (HIV-1)
# [5] = target: HIV-1 Env pseudovirus BJOX025000.01.1 (HIV-1)
# [6] = target: HIV-1 Env pseudovirus X1193_c1 (HIV-1)
# [7] = target: HIV-1 Env pseudovirus 0815.v3.c3 (HIV-1)
# [8] = target: HIV-1 Env pseudovirus 3103.v3.c10 (HIV-1)
# [9] = target: Env of HIV-1 pseudovirus T250-4 (HIV-1)
# [10] = target: Env of HIV-1 pseudovirus THRO4156.18 (HIV-1)
# [11] = target: Env of HIV-1 pseudovirus Q259.d2.17 (HIV-1)
# [12] = target: Env of HIV-1 pseudovirus 7030102001E5(Rev-) (HIV-1)
# [13] = target: Env of HIV-1 pseudovirus ZM197M.PB7 (HIV-1)
# [14] = target: Env of HIV-1 pseudovirus 249M B10 (HIV-1)
# [15] = target: Env of HIV-1 pseudovirus ZM135M.PL10a (HIV-1)
# [16] = target: Env of HIV-1 pseudovirus ZM233M.PB6 (HIV-1)
# [17] = target: Env of HIV-1 pseudovirus CAAN5342.A2 (HIV-1)
# [18] = target: Env of HIV-1 pseudovirus 1056_10_TA11_1826 (HIV-1)
# [19] = target: Env of HIV-1 pseudovirus 191955_A11 (HIV-1)
# [20] = target: Env of HIV-1 pseudovirus CNE52 (HIV-1)
# [21] = target: Env of HIV-1 pseudovirus BF1266.431a (HIV-1)
# [22] = target: Env of HIV-1 pseudovirus Du156.12 (HIV-1)
# [23] = target: Env of HIV-1 pseudovirus Ce1086_B2 (HIV-1)
# [24] = target: Env of HIV-1 pseudovirus Ce2060_G9 (HIV-1)
# [25] = target: Env of HIV-1 pseudovirus HIV-16845-2.22 (HIV-1)
# [26] = target: Env of HIV-1 pseudovirus CNE58 (HIV-1)
substance,measurement,setting,value
3BNC117 (antibody),IC50 (Titer in TZM.bl cells),[1],0.02 µg/mL
same,IC80 (Titer in TZM.bl cells),[1],0.1 µg/mL
same,IC50 (Titer in TZM.bl cells),[2],0.09 µg/mL
same,IC80 (Titer in TZM.bl cells),[2],0.52 µg/mL
same,IC50 (Titer in TZM.bl cells),[3],0.03 µg/mL
same,IC80 (Titer in TZM.bl cells),[3],0.13 µg/mL
same,IC50 (Titer in TZM.bl cells),[4],0.01 µg/mL
same,IC80 (Titer in TZM.bl cells),[4],0.05 µg/mL
same,IC50 (Titer in TZM.bl cells),[5],0.05 µg/mL
same,IC80 (Titer in TZM.bl cells),[5],0.2 µg/mL
same,IC50 (Titer in TZM.bl cells),[6],0.06 µg/mL
same,IC80 (Titer in TZM.bl cells),[6],0.25 µg/mL
same,IC50 (Titer in TZM.bl cells),[7],0.01 µg/mL
same,IC80 (Titer in TZM.bl cells),[7],0.02 µg/mL
same,IC50 (Titer in TZM.bl cells),[8],0.22 µg/mL
same,IC80 (Titer in TZM.bl cells),[8],0.85 µg/mL
8ANC195 (antibody),IC50 (Titer in TZM.bl cells),[1],2.25 µg/mL
same,IC80 (Titer in TZM.bl cells),[1],7.49 µg/mL
same,IC50 (Titer in TZM.bl cells),[2],0.2 µg/mL
same,IC80 (Titer in TZM.bl cells),[2],0.71 µg/mL
same,IC50 (Titer in TZM.bl cells),[3],> 50 µg/mL
same,IC80 (Titer in TZM.bl cells),[3],> 50 µg/mL
same,IC50 (Titer in TZM.bl cells),[4],0.45 µg/mL
same,IC80 (Titer in TZM.bl cells),[4],2.83 µg/mL
same,IC50 (Titer in TZM.bl cells),[5],4.96 µg/mL
same,IC80 (Titer in TZM.bl cells),[5],> 50 µg/mL
same,IC50 (Titer in TZM.bl cells),[6],0.27 µg/mL
same,IC80 (Titer in TZM.bl cells),[6],1.66 µg/mL
same,IC50 (Titer in TZM.bl cells),[7],1.94 µg/mL
same,IC80 (Titer in TZM.bl cells),[7],1.94 µg/mL
same,IC50 (Titer in TZM.bl cells),[8],48.1 µg/mL
same,IC80 (Titer in TZM.bl cells),[8],> 50 µg/mL
10E8 (antibody),IC50,[9],1.35 µg/mL
same,IC80,[9],8.13 µg/mL
same,IC50,[10],0.156 µg/mL
same,IC80,[10],0.884 µg/mL
same,IC50,[11],4.59 µg/mL
same,IC80,[11],> 10 µg/mL
same,IC50,[12],6.71 µg/mL
same,IC80,[12],> 10 µg/mL
same,IC50,[13],0.148 µg/mL
same,IC80,[13],0.802 µg/mL
same,IC50,[14],1.27 µg/mL
same,IC80,[14],9.05 µg/mL
same,IC50,[15],0.171 µg/mL
same,IC80,[15],1.19 µg/mL
same,IC50,[16],0.442 µg/mL
same,IC80,[16],2.39 µg/mL
same,IC50,[17],1.28 µg/mL
same,IC80,[17],9.28 µg/mL
same,IC50,[18],0.134 µg/mL
same,IC80,[18],1.03 µg/mL
same,IC50,[19],0.68 µg/mL
same,IC80,[19],3.53 µg/mL
same,IC50,[20],0.304 µg/mL
same,IC80,[20],3.06 µg/mL
same,IC50,[21],2.69 µg/mL
same,IC80,[21],> 10 µg/mL
same,IC50,[22],0.034 µg/mL
same,IC80,[22],0.144 µg/mL
same,IC50,[23],1.16 µg/mL
same,IC80,[23],6.93 µg/mL
same,IC50,[24],3.52 µg/mL
same,IC80,[24],> 10 µg/mL
same,IC50,[25],0.068 µg/mL
same,IC80,[25],0.495 µg/mL
same,IC50,[26],1.29 µg/mL
same,IC80,[26],8.27 µg/mL
PG9 (antibody),IC50,[9],0.005 µg/mL
same,IC80,[9],0.014 µg/mL
same,IC50,[10],24.5 µg/mL
same,IC80,[10],> 50 µg/mL
same,IC50,[11],0.029 µg/mL
same,IC80,[11],1.38 µg/mL
same,IC50,[12],> 50 µg/mL
same,IC80,[12],> 50 µg/mL
same,IC50,[13],0.899 µg/mL
same,IC80,[13],4.52 µg/mL
same,IC50,[14],0.095 µg/mL
same,IC80,[14],0.29 µg/mL
same,IC50,[15],20.6 µg/mL
same,IC80,[15],> 50 µg/mL
same,IC50,[16],0.01 µg/mL
same,IC80,[16],0.026 µg/mL
same,IC50,[17],4.6 µg/mL
same,IC80,[17],27 µg/mL
same,IC50,[18],6.34 µg/mL
same,IC80,[18],38.3 µg/mL
same,IC50,[19],0.053 µg/mL
same,IC80,[19],0.154 µg/mL
same,IC50,[20],0.029 µg/mL
same,IC80,[20],0.081 µg/mL
same,IC50,[21],0.026 µg/mL
same,IC80,[21],0.088 µg/mL
same,IC50,[22],0.026 µg/mL
same,IC80,[22],0.19 µg/mL
same,IC50,[23],> 50 µg/mL
same,IC80,[23],> 50 µg/mL
same,IC50,[24],0.045 µg/mL
same,IC80,[24],0.172 µg/mL
same,IC50,[25],4.4 µg/mL
same,IC80,[25],> 50 µg/mL
same,IC50,[26],0.038 µg/mL
same,IC80,[26],0.122 µg/mL
PG16 (antibody),IC50,[9],0.002 µg/mL
same,IC80,[9],0.005 µg/mL
same,IC50,[10],6.83 µg/mL
same,IC80,[10],> 50 µg/mL
same,IC50,[11],0.065 µg/mL
same,IC80,[11],45.9 µg/mL
same,IC50,[12],> 50 µg/mL
same,IC80,[12],> 50 µg/mL
same,IC50,[13],1.5 µg/mL
same,IC80,[13],22.8 µg/mL
same,IC50,[14],0.026 µg/mL
same,IC80,[14],1.25 µg/mL
same,IC50,[15],> 50 µg/mL
same,IC80,[15],> 50 µg/mL
same,IC50,[16],0.002 µg/mL
same,IC80,[16],0.006 µg/mL
same,IC50,[17],1.83 µg/mL
same,IC80,[17],33 µg/mL
same,IC50,[18],0.315 µg/mL
same,IC80,[18],1.95 µg/mL
same,IC50,[19],0.009 µg/mL
same,IC80,[19],0.042 µg/mL
same,IC50,[20],0.009 µg/mL
same,IC80,[20],0.026 µg/mL
same,IC50,[21],0.003 µg/mL
same,IC80,[21],0.009 µg/mL
same,IC50,[22],0.006 µg/mL
same,IC80,[22],0.026 µg/mL
same,IC50,[23],> 50 µg/mL
same,IC80,[23],> 50 µg/mL
same,IC50,[24],0.075 µg/mL
same,IC80,[24],1.71 µg/mL
same,IC50,[25],3.13 µg/mL
same,IC80,[25],> 50 µg/mL
same,IC50,[26],0.044 µg/mL
same,IC80,[26],0.25 µg/mL
VRC07 (antibody),IC50 (Titer in TZM.bl cells),[1],0.11 µg/mL
same,IC80 (Titer in TZM.bl cells),[1],0.353 µg/mL
same,IC50 (Titer in TZM.bl cells),[2],0.121 µg/mL
same,IC80 (Titer in TZM.bl cells),[2],0.444 µg/mL
same,IC50 (Titer in TZM.bl cells),[3],0.06 µg/mL
same,IC80 (Titer in TZM.bl cells),[3],0.38 µg/mL
same,IC50 (Titer in TZM.bl cells),[4],0.011 µg/mL
same,IC80 (Titer in TZM.bl cells),[4],0.069 µg/mL
same,IC50 (Titer in TZM.bl cells),[5],0.279 µg/mL
same,IC80 (Titer in TZM.bl cells),[5],2.29 µg/mL
same,IC50 (Titer in TZM.bl cells),[6],0.037 µg/mL
same,IC80 (Titer in TZM.bl cells),[6],0.249 µg/mL
same,IC50 (Titer in TZM.bl cells),[7],0.015 µg/mL
same,IC80 (Titer in TZM.bl cells),[7],0.051 µg/mL
same,IC50 (Titer in TZM.bl cells),[8],0.675 µg/mL
same,IC80 (Titer in TZM.bl cells),[8],1.95 µg/mL
